Results taken from PMC8138769.
pKd: −log10 of the molar value.

Columns and labels:
[1] = biological target: Ly49C natural killer domain (NKD), high-affinity mutant (V141K, S171G, E193G, R223K) (murine); assay: ITC
[2] = biological target: H-2K^b (heavy chain with murine β2-microglobulin) (mouse | murine)
[3] = biological target: Ly49C natural killer domain (NKD), high-affinity mutant (V141K, S171G, E193G, R223K) (murine); assay: AUC; sedimentation velocity, 20 °C, absorbance optics, 40,000 rpm; 4.2 μM Ly49C NKD, 3.7 μM peptide/MHC complex, and a mixture of the two; 10 mM HEPES pH 7.4, 150 mM NaCl, 3 mM EDTA, 0.005% surfactant P20

H-2K^b in complex with the ovalbumin peptide (OVA; SIINFEKL) (from UniProt P01887) (peptide-MHC)
pKd [1]: 5.72 | dH [1]: 2 kcal/mol | stoichiometry N [1]: 1

H-2K^b presenting the MMTV gp70 peptide (MMTV; ANYDFICV) (from UniProt P01887 21-119) (peptide-MHC)
pKd [1]: 5.10 | dH [1]: 2.3 kcal/mol | stoichiometry N [1]: 1

MMTV gp70 peptide (MMTV; ANYDFICV)
apparent Tm of the peptide/H-2K^b complex by differential scanning fluorimetry [2]: 54 °C

ovalbumin peptide (OVA; SIINFEKL)
apparent Tm of the peptide/H-2K^b complex by differential scanning fluorimetry [2]: 58 °C

Ly49C natural killer domain (NKD), high-affinity mutant (V141K, S171G, E193G, R223K) (domain or fragment)
stoichiometry N [3]: 2
